Laboratory results from patent publication US20210130436A1 (published 2021).

Columns and labels:
[1] = molecular target: T1, human CTLA4 on CHO cells (human, UniProt P16410 36-223); test: flow cytometry, CHO/CTLA4 cells; MFI relative to WT CD80
T1 construct: whole, on cells; CHO cells stably expressing CTLA4; also called huCTLA4

[2] = molecular target: T2, CD28 on Jurkat/IL2 reporter cells (human, UniProt P10747 19-220); test: flow cytometry, Jurkat cells (CD28)
T2 construct: whole, on cells; Endogenous CD28 of Jurkat cells; also called Jurkats (CD28)

[3] = molecular target: T3, human PD-L1 on CHO cells (human, UniProt Q9NZQ7 19-290); test: flow cytometry, CHO cells stably expressing PD-L1
T3 construct: whole, on cells; CHO cells stably expressing PD-L1; also called huPD-L1

[4] = molecular target: T1, human CTLA4 on CHO cells; test: flow cytometry, CHO cells stably expressing CTLA4
[5] = molecular target: T2, CD28 on Jurkat/IL2 reporter cells; test: flow cytometry, Jurkat cells (CD28); MFI relative to WT CD80
[6] = molecular target: T3, human PD-L1 on CHO cells; test: flow cytometry; PD-L1 MFI over CD28 MFI
[7] = molecular target: T3, human PD-L1 on CHO cells; test: flow cytometry, CHO/PD-L1 cells; MFI relative to WT CD80
[8] = molecular target: T4, human PD-L1 (full-length, expressed on CHO cells) (human, UniProt Q9NZQ7 19-290); test: flow cytometry, MFI on CHO/huPD-L1 cells over MFI on Jurkat (CD28) cells, 33.3 nM
T4 construct: also called huPD-L1; CD274

[9] = molecular target: T5, human CTLA4 (full-length, expressed on CHO cells) (human, UniProt P16410 36-223); test: flow cytometry, CHO cells expressing huCTLA4, PE anti-human Fc
T5 construct: also called huCTLA4

[10] = molecular target: T5, human CTLA4 (full-length, expressed on …); test: flow cytometry MFI at 33.3 nM relative to WT CD80 ECD-Fc (R&D), CHO/huCTLA4 cells
[11] = molecular target: T6, CD28 (endogenously expressed on Jurkat/IL2 reporter cells) (human, UniProt P10747 19-220); test: flow cytometry MFI at 33.3 nM relative to WT CD80 ECD-Fc (R&D), Jurkat cells
T6 construct: Endogenous CD28 of Jurkat cells; also called human CD28

[12] = molecular target: T4, human PD-L1 (full-length, expressed on …); test: flow cytometry MFI at 33.3 nM relative to WT CD80 ECD-Fc (R&D), CHO/huPD-L1 cells
[13] = molecular target: T4, human PD-L1 (full-length, expressed on …); test: flow cytometry, CHO cells expressing huPD-L1, PE anti-human Fc
[14] = molecular target: T6, CD28 (endogenously expressed on …); test: flow cytometry, Jurkat/IL2 reporter cells (endogenous CD28), PE anti-human Fc
[15] = molecular target: T7, human PD-L1 (huPD-L1), full-length, stably expressed on CHO cells (human, UniProt Q9NZQ7 19-290); test: flow cytometry, CHO cells expressing huPD-L1
T7 construct: whole, on cells
T7 sequence (Q9NZQ7 19-290): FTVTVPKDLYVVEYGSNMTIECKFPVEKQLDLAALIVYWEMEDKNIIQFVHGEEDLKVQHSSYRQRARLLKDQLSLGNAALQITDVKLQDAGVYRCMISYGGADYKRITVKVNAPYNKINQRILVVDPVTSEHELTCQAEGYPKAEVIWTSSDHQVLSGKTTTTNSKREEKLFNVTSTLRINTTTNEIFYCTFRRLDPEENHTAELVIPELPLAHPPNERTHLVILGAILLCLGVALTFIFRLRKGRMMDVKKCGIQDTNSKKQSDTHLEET

T1 sequence (P16410 36-223): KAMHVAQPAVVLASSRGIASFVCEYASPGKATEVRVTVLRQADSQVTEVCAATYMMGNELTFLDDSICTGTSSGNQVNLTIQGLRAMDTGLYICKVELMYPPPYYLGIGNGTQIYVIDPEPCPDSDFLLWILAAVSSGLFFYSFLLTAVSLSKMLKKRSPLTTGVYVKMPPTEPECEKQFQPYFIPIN
T5 sequence (P16410 36-223): as above
T3 sequence (Q9NZQ7 19-290): as the sequence (Q9NZQ7 19-290) above
T4 sequence (Q9NZQ7 19-290): as above

Row | Fold change to WT CD80 [1] | MFI at 33.3 nM [2] | MFI at 33.3 nM [3] | MFI at 33.3 nM [4] | Fold change to WT CD80 [5] | Ratio of PDL1:CD28 [6] | Fold change to WT CD80 [7] | Ratio of PDL1:CD28 [8] | MFI at 33.3 nM [9] | Fold change to WT CD80 [10] | Fold change to WT [11] | Fold change to WT [12] | MFI at 33.3 nM [13] | MFI at 33.3 nM [14] | MFI at 33.3 nM [15] | Binder
1 | 1 fold | 66 MFI | 70.3 MFI | 1920 MFI | 1 fold | 1 ratio | 1 fold | – | – | – | – | – | – | – | – | CD80 WT IgV-Fc (Fc fusion, not shown: a dimerising Fc or GST, also called WT CD80 IgV-Fc; wild-type CD80 IgV-Fc) VIHVTKEVKEVATLSCGHNVSVEELAQTRIYWQKEKKMVLTMMSGDMNIWPEYKNRTIFDITNNLSIVILALRPSDEGTYECVVLKYEKDAFKREHLAEVTLSVKAD
2 | – | – | – | – | – | – | – | 275 ratio | 3640 MFI | 0.02 fold | 0.04 fold | 9.51 fold | 75500 MFI | 274 MFI | – | variant CD80 IgV-Fc V22A/E23D/Q33L/E35D/M47V (Fc fusion, not shown: a dimerising Fc or GST) VIHVTKEVKEVATLSCGHNVSADELAQTRIYWLKDKKMVLTMMSGDVNIWPEYKNRTIFDITNNLSIVILALRPSDEGTYECVVLKYEKDAFKREHLAEVTLSVKAD
3 | – | – | – | – | – | – | – | – | – | – | – | – | – | – | 24300 MFI | variant CD80 IgV-Fc E35D/D46E/M47L/V68M/A71G/Y87C/K93R (Fc fusion, not shown: small tags and cut ends; a dimerising Fc or GST) VIHVTKEVKEVATLSCGHNVSVEELAQTRIYWQKDKKMVLTMMSGELNIWPEYKNRTIFDITNNLSIMILGLRPSDEGTYECVVLKCEKDAFRREHLAEVTLSVKAD
4 | – | – | – | – | – | – | – | 51 ratio | 336000 MFI | 1.88 fold | 0.08 fold | 4.18 fold | 33200 MFI | 646 MFI | – | variant CD80 IgV-Fc E35D/M47L/L85Q (Fc fusion, not shown: a dimerising Fc or GST) VIHVTKEVKEVATLSCGHNVSVEELAQTRIYWQKDKKMVLTMMSGDLNIWPEYKNRTIFDITNNLSIVILALRPSDEGTYECVVQKYEKDAFKREHLAEVTLSVKAD
5 | – | – | – | – | – | – | – | 162 ratio | 5540 MFI | 0.03 fold | 0.04 fold | 6.02 fold | 47800 MFI | 295 MFI | – | variant CD80 IgV-Fc H18Y/Q33L/E35D/M47I (Fc fusion, not shown: a dimerising Fc or GST) VIHVTKEVKEVATLSCGYNVSVEELAQTRIYWLKDKKMVLTMMSGDINIWPEYKNRTIFDITNNLSIVILALRPSDEGTYECVVLKYEKDAFKREHLAEVTLSVKAD
6 | – | – | – | – | – | – | – | 256 ratio | 1660 MFI | 0.01 fold | 0.04 fold | 9.14 fold | 72600 MFI | 284 MFI | – | variant CD80 IgV-Fc Q33L/E35D/M47I/T62N/L85Q (Fc fusion, not shown: a dimerising Fc or GST) VIHVTKEVKEVATLSCGHNVSVEELAQTRIYWLKDKKMVLTMMSGDINIWPEYKNRTIFDINNNLSIVILALRPSDEGTYECVVQKYEKDAFKREHLAEVTLSVKAD
7 | – | – | – | – | – | – | – | 140 ratio | 1100 MFI | 0.01 fold | 0.04 fold | 4.9 fold | 38900 MFI | 278 MFI | – | variant CD80 IgV-Fc Y31S/E35D/M47L/T79L/E88G (Fc fusion, not shown: a dimerising Fc or GST) VIHVTKEVKEVATLSCGHNVSVEELAQTRISWQKDKKMVLTMMSGDLNIWPEYKNRTIFDITNNLSIVILALRPSDEGLYECVVLKYGKDAFKREHLAEVTLSVKAD
8 | 16.8 fold | 3450 MFI | 2820 MFI | 32200 MFI | 52.3 fold | 1 ratio | 40.1 fold | – | – | – | – | – | – | – | – | variant CD80 IgV-Fc E35D/D46E/A91G (Fc fusion, not shown: a dimerising Fc or GST) VIHVTKEVKEVATLSCGHNVSVEELAQTRIYWQKDKKMVLTMMSGEMNIWPEYKNRTIFDITNNLSIVILALRPSDEGTYECVVLKYEKDGFKREHLAEVTLSVKAD
9 | – | – | – | – | – | – | – | – | – | – | – | – | – | – | 13100 MFI | variant CD80 IgV-Fc E35D/M47I/V68M/Y87N (Fc fusion, not shown: small tags and cut ends; a dimerising Fc or GST) VIHVTKEVKEVATLSCGHNVSVEELAQTRIYWQKDKKMVLTMMSGDINIWPEYKNRTIFDITNNLSIMILALRPSDEGTYECVVLKNEKDAFKREHLAEVTLSVKAD
10 | – | – | – | – | – | – | – | 463 ratio | 2880 MFI | 0.02 fold | 0.03 fold | 15.2 fold | 121000 MFI | 260 MFI | – | variant CD80 IgV-Fc H18Y/V20A/Q33L/E35D/M47V/Y53F (Fc fusion, not shown: a dimerising Fc or GST) VIHVTKEVKEVATLSCGYNASVEELAQTRIYWLKDKKMVLTMMSGDVNIWPEFKNRTIFDITNNLSIVILALRPSDEGTYECVVLKYEKDAFKREHLAEVTLSVKAD
11 | – | – | – | – | – | – | – | 9 ratio | 284000 MFI | 1.59 fold | 0.66 fold | 5.56 fold | 44200 MFI | 5070 MFI | – | variant CD80 IgV-Fc H18Y/E35D/M47L (Fc fusion, not shown: a dimerising Fc or GST) VIHVTKEVKEVATLSCGYNVSVEELAQTRIYWQKDKKMVLTMMSGDLNIWPEYKNRTIFDITNNLSIVILALRPSDEGTYECVVLKYEKDAFKREHLAEVTLSVKAD
12 | – | – | – | – | – | – | – | 55 ratio | 56100 MFI | 0.31 fold | 0.04 fold | 1.86 fold | 14800 MFI | 269 MFI | – | variant CD80 IgV-Fc Q27H/Q33L/E35D/M47V/N55D/L85Q/K89N (Fc fusion, not shown: a dimerising Fc or GST) VIHVTKEVKEVATLSCGHNVSVEELAHTRIYWLKDKKMVLTMMSGDVNIWPEYKDRTIFDITNNLSIVILALRPSDEGTYECVVQKYENDAFKREHLAEVTLSVKAD
13 | – | – | – | – | – | – | – | 282 ratio | 2090 MFI | 0.01 fold | 0.04 fold | 9.64 fold | 76600 MFI | 272 MFI | – | variant CD80 IgV-Fc H18Y/A26E/Q33L/E35D/M47L/L85Q (Fc fusion, not shown: a dimerising Fc or GST) VIHVTKEVKEVATLSCGYNVSVEELEQTRIYWLKDKKMVLTMMSGDLNIWPEYKNRTIFDITNNLSIVILALRPSDEGTYECVVQKYEKDAFKREHLAEVTLSVKAD
14 | – | – | – | – | – | – | – | 222 ratio | 20500 MFI | 0.11 fold | 0.04 fold | 8.05 fold | 63900 MFI | 287 MFI | – | variant CD80 IgV-Fc Q33L/E35D/M47I/L85Q (Fc fusion, not shown: a dimerising Fc or GST) VIHVTKEVKEVATLSCGHNVSVEELAQTRIYWLKDKKMVLTMMSGDINIWPEYKNRTIFDITNNLSIVILALRPSDEGTYECVVQKYEKDAFKREHLAEVTLSVKAD
15 | 14.8 fold | 1320 MFI | 7330 MFI | 28400 MFI | 20.1 fold | 6 ratio | 104 fold | – | – | – | – | – | – | – | – | variant CD80 IgV-Fc D46V/M47I/A71G (Fc fusion, not shown: a dimerising Fc or GST) VIHVTKEVKEVATLSCGHNVSVEELAQTRIYWQKEKKMVLTMMSGVINIWPEYKNRTIFDITNNLSIVILGLRPSDEGTYECVVLKYEKDAFKREHLAEVTLSVKAD
16 | 14.6 fold | 779 MFI | 3760 MFI | 27900 MFI | 11.8 fold | 5 ratio | 53.4 fold | – | – | – | – | – | – | – | – | variant CD80 IgV-Fc E35D/D46E (Fc fusion, not shown: a dimerising Fc or GST) VIHVTKEVKEVATLSCGHNVSVEELAQTRIYWQKDKKMVLTMMSGEMNIWPEYKNRTIFDITNNLSIVILALRPSDEGTYECVVLKYEKDAFKREHLAEVTLSVKAD
